Data from patent publication US20260217822A1 (SANA BIOTECHNOLOGY, published 2026).
Like-named read-outs stand apart in the source and are kept apart here. Values belong to the binder of their own block, whether it stands above or below them.

Columns and labels:
recombinant CD19 [1] = target: T1, recombinant CD19 (UniProt P15391 20-291, limits assumed); experiment: ELISA on recombinant CD19, OD at 405 nm
T1 construct: also called Cluster of Differentiation 19; B-lymphocyte antigen CD19
T1 sequence (looked up): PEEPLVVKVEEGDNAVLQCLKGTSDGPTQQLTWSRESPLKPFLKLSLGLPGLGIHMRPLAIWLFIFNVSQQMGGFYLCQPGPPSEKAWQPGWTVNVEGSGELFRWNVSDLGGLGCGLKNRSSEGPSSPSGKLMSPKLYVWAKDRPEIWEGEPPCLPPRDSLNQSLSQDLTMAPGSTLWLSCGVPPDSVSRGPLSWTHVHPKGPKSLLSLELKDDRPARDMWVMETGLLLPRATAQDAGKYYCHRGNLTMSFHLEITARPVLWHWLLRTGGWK

[2] = target: T2, CD19 on CD19+ cells (Raji cells; NALM-6 tumor cells) (UniProt P15391 20-556, limits assumed); experiment: flow cytometry, binder incubated with CD19+ Raji cells
T2 construct: whole, on cells; Endogenous CD19 on tumor cell lines; also called CD19+ Raji cells
T2 sequence (looked up): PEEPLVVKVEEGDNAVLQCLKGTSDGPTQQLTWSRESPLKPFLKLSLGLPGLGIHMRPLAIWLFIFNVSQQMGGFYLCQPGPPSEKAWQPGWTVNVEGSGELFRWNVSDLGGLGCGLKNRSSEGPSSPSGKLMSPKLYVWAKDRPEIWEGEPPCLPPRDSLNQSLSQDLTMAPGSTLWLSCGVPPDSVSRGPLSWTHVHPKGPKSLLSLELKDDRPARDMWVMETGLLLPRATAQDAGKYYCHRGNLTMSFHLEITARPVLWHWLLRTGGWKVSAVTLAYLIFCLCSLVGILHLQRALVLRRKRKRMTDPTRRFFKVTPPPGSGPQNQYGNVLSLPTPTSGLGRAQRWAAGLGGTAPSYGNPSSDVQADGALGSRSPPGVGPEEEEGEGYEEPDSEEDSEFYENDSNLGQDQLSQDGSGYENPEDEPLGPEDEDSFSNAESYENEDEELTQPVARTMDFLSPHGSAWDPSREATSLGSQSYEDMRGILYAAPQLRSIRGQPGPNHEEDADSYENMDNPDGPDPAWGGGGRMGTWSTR

recombinant CD19 [3] = target: T1, recombinant CD19; experiment: ELISA on recombinant CD19, OD at 405 nm against antibody concentration
recombinant CD19 [4] = target: T1, recombinant CD19; experiment: as above; remark: listed apart in the source
[5] = target: T2, CD19 on CD19+ cells (Raji cells; NALM-6 …); experiment: cell-based or functional assay
recombinant CD19 [6] = target: T1, recombinant CD19; experiment: ELISA on recombinant CD19, OD at 405 nm against antibody concentration; remark: listed apart in the source

B3: CAR 400 (VH-VL) CD19 chimeric antigen receptor (receptor)
chain: EVQLVQSGAEVKKPGESLKISCKGSGYSFTSYWIGWVRQMPGKGLEWMGIIYPGDSDTRYSPSFQGQVTISADKSISTAYLQWSSLKASDTAMYYCARLPFVGATTGGFDYWGQGTLVTVSSGGGGSGGGGSGGGGSQSVVTQPASVSGSPGQSITISCTGTSSDVGGYNYVSWYQQHPGKAPKLVIYEVSNRPSGVSNRFSGSKSGNTASLTISGLQAEDEADYYCSSYTSSSTLVFGGGTKLTVLTTTPAPRPPTPAPTIASQPLSLRPEACRPAAGGAVHTRGLDFACDIYIWAPLAGTCGVLLLSLVITLYCKRGRKKLLYIFKQPFMRPVQTTQEEDGCSCRFPEEEEGGCELRVKFSRSADAPAYQQGQNQLYNELNLGRREEYDVLDKRRGRDPEMGGKPRRKNPQEGLYNELQKDKMAEAYSEIGMKGERRRGKGHDGLYQGLSTATKDTYDALHMQALPPR
NALM-6 survival percentage after 24-hour co-culture with hypoimmune CAR T cells, E:T ratio of 1:32 (luciferase read-out) [5]: < 20%

B4: CD19 Binder 2 (scFv, V domains shown)
VH: EVHLVESGGGLVQPGGSLRLSCAASGFTFSDYYMSWIRQAPGKGLEWVSYISSSGSTTYYADSVKGRFTISRDNAKNSLYLQMNSLRAEDTAVYYCARVEGWSLLDYWGQGTLVTVSS
VL: QSVLTQPPSVSAAPGQKVTMSCSGSSSNIGNNYVSWYQQLPGTAPKLLIYDNNKRPSGIPDRFSGSKSGTSATLGITGLQTGDEADYYCGTWDSSLGAVVFGGGTKVTVL
EC50 (recombinant CD19 [1]): 0.27 µg/mL
EC50 [2]: 0.073 µg/mL
EC50 (read off the curve) (recombinant CD19 [6]): ~0.3 µg/mL

Further lines, results first:

EC50 (recombinant CD19 [1]): 0.099 µg/mL
EC50 [2]: 0.041 µg/mL
EC50 (read off the curve) (recombinant CD19 [3]): ~0.1 µg/mL
B1: CD19 Binder 1 (scFv, V domains shown)
VH: EVQLVESGGGLIQPGGSLRLSCAASGFTVSSNYMSWVRQAPGKGLEWVSVIYSGGSTYYADSVKGRFTISRDNSKNTLYLQMNSLRAEDTAVYYCARDGGLDTLYGMDVWGQGTTVTVSS
VL: QSVVTQPPSVSGAPGQRVTISCTGSSSNIGAGYDVHWYQQLPGTAPKLLIYGNSNRPSGVPDRFSGSKSGTSASLAITGLQAEDEADYYCQSYDSSLSGSYVFGTGTKVTVL

EC50 (recombinant CD19 [1]): 0.044 µg/mL
EC50 [2]: 1.2 µg/mL
EC50 (read off the curve) (recombinant CD19 [4]): ~0.04 µg/mL
B2: CD19 Binder 3 (scFv, V domains shown)
VH: EVQLVQSGAEVKKPGESLKISCKGSGYSFTSYWIGWVRQMPGKGLEWMGIIYPGDSDTRYSPSFQGQVTISADKSISTAYLQWSSLKASDTAMYYCARLPFVGATTGGFDYWGQGTLVTVSS
VL: QSVVTQPASVSGSPGQSITISCTGTSSDVGGYNYVSWYQQHPGKAPKLVIYEVSNRPSGVSNRFSGSKSGNTASLTISGLQAEDEADYYCSSYTSSSTLVFGGGTKLTVL
